Measurements taken from US7063950.

How the values were obtained:
[1] = molecular target: human neuronal calcium channel α1B-1 subunit (human)
[2] = molecular target: human neuronal calcium channel α1B-2α2bβ1-3 (human)
[3] = molecular target: human neuronal calcium channel α1B-2α2bβ1-3 (human); experiment: saturation binding of 125I-ω-CgTx GVIA to transiently transfected HEK293 cells

B1: 125I-ω-CgTx GVIA, P01522 46-72 (peptide)
peptide: CKSPGSSCSPTSYNCCRSCNPYTKRCY
modifications: not checked
Q: How did the Bmax (sites/cell) [1] turn out when B1 was run?
A: The Bmax (sites/cell) was 757 sites/cell.

Q: And the Kd [1]?
A: The Kd was 0.0317 nM.

Q: And the fold binding capacity against α1B-2α2bβ1-2 [2]?
A: Its fold binding capacity against α1B-2α2bβ1-2 is 2 fold.

Q: What about the fold surface receptor density against α1B-2β1-3 [2] of the same binder?
A: Its fold surface receptor density against α1B-2β1-3 is 13 fold.

Q: And the Bmax (sites/cell) [3]?
A: Its Bmax (sites/cell) is 37700 sites/cell.

Q: And the Kd [3]?
A: Its Kd is 0.0443 nM.
